Reference: the RNAGym collection of RNA variant scans (doi:10.7554/elife.80360)

B1: CPEB3 Ribozyme (parent)
chain: GGGGGCCACAGCAGAAGCGUUCACGUCGCGGCCCCUGUCAGAUUCUGGUGAAUCUGCGAAUUCUGCUGU

Variants of: B1
Assay: self-cleavage, relative activity (ratio to wild type); higher = more cleavage; co-transcriptional

Q: Which self-cleavage does the source give for G17U U55C here?
A: 0.227

Q: For C18U C33G, which self-cleavage is on record?
A: 0.304

Q: For C18U C33A, which self-cleavage is on record?
A: 0.278

Q: For G19U C63G, which self-cleavage is on record?
A: 0.249

Q: For G19U C63U, which self-cleavage is on record?
A: 0.318

Q: With G19C A51U as the variant, how does the self-cleavage read?
A: 0.157

Q: Which self-cleavage does the source give for G19C A51G here?
A: 0.182

Q: With G19C G47A as the variant, how does the self-cleavage read?
A: 0.169

Q: For C18U C34G, which self-cleavage is on record?
A: 0.426

Q: Which self-cleavage does the source give for C18U C34U here?
A: 0.919

Q: With C18G U20A as the variant, how does the self-cleavage read?
A: 0.0787

Q: Which self-cleavage does the source give for G19A G37C here?
A: 0.128

Q: With G19A G37A as the variant, how does the self-cleavage read?
A: 0.142

Q: With C18U U20G as the variant, how does the self-cleavage read?
A: 0.28

Q: Which self-cleavage does the source give for G19A U20C here?
A: 0.166

Q: For G19A U20A, which self-cleavage is on record?
A: 0.145

Q: For G19U U44C, which self-cleavage is on record?
A: 0.232

Q: Which self-cleavage does the source give for G17U U61G here?
A: 0.344

Q: For G17U U61C, which self-cleavage is on record?
A: 0.186

Q: For G19C C29U, which self-cleavage is on record?
A: 0.112

Q: With G17U G68C as the variant, how does the self-cleavage read?
A: 0.818

Q: With G17U G68U as the variant, how does the self-cleavage read?
A: 0.768

Q: Which self-cleavage does the source give for C18U G65U here?
A: 0.245

Q: With G19A C32G as the variant, how does the self-cleavage read?
A: 0.153

Q: Which self-cleavage does the source give for G19A C32U here?
A: 0.216

Q: With C18G U55G as the variant, how does the self-cleavage read?
A: 0.175

Q: With C18A A59G as the variant, how does the self-cleavage read?
A: 0.145

Q: Which self-cleavage does the source give for C18A A59U here?
A: 0.123

Q: With C18A U43C as the variant, how does the self-cleavage read?
A: 0.161

Q: With G19A U64A as the variant, how does the self-cleavage read?
A: 0.104

Q: For G19A U64G, which self-cleavage is on record?
A: 0.12

Q: Which self-cleavage does the source give for C18A C34G here?
A: 0.14

Q: For C18A C34U, which self-cleavage is on record?
A: 0.16

Q: For C18G A40G, which self-cleavage is on record?
A: 0.122

Q: For C18U U53A, which self-cleavage is on record?
A: 0.632

Q: For C18U U53G, which self-cleavage is on record?
A: 0.633

Q: For G19U A23G, which self-cleavage is on record?
A: 0.262

Q: For C18G G68U, which self-cleavage is on record?
A: 0.311

Q: For G19U C27U, which self-cleavage is on record?
A: 0.158

Q: With C18G C35A as the variant, how does the self-cleavage read?
A: 0.0628

Q: With C18U G50C as the variant, how does the self-cleavage read?
A: 0.803

Q: For C18U G50U, which self-cleavage is on record?
A: 0.906

Q: Which self-cleavage does the source give for C18U C57U here?
A: 0.3

Q: For C18G U61A, which self-cleavage is on record?
A: 0.223

Q: Which self-cleavage does the source give for C18A G37C here?
A: 0.213

Q: Which self-cleavage does the source give for G19A C22A here?
A: 0.104

Q: With G19A A40G as the variant, how does the self-cleavage read?
A: 0.17

Q: Which self-cleavage does the source give for G19U U53G here?
A: 0.252

Q: With G19U U53A as the variant, how does the self-cleavage read?
A: 0.273

Q: Which self-cleavage does the source give for G19U U53C here?
A: 0.242

Q: With C18A G65C as the variant, how does the self-cleavage read?
A: 0.217

Q: With C18U A51C as the variant, how does the self-cleavage read?
A: 0.771

Q: Which self-cleavage does the source give for G19A U53C here?
A: 0.15

Q: Which self-cleavage does the source give for G19A U53G here?
A: 0.18

Q: For C18G A51G, which self-cleavage is on record?
A: 0.184

Q: With C18G A51U as the variant, how does the self-cleavage read?
A: 0.207

Q: Which self-cleavage does the source give for G19U G47A here?
A: 0.655

Q: Which self-cleavage does the source give for G19U G47C here?
A: 0.677

Q: Which self-cleavage does the source give for C18G G37A here?
A: 0.119

Q: With C18A U49A as the variant, how does the self-cleavage read?
A: 0.16

Q: With C18A U49C as the variant, how does the self-cleavage read?
A: 0.195

Q: Which self-cleavage does the source give for C18A U61C here?
A: 0.158

Q: For G19U C66U, which self-cleavage is on record?
A: 0.382

Q: Which self-cleavage does the source give for C18U U26A here?
A: 0.669

Q: For G19A C63U, which self-cleavage is on record?
A: 0.116

Q: Which self-cleavage does the source give for C18A G58C here?
A: 0.193

Q: Which self-cleavage does the source give for C18A A42G here?
A: 0.208

Q: For C18U U64C, which self-cleavage is on record?
A: 0.383

Q: For C18U U64A, which self-cleavage is on record?
A: 0.351

Q: With G17U U53C as the variant, how does the self-cleavage read?
A: 0.188

Q: For C18G U62G, which self-cleavage is on record?
A: 0.173

Q: Which self-cleavage does the source give for C18A G41A here?
A: 0.156

Q: For G19A U46A, which self-cleavage is on record?
A: 0.155

Q: Which self-cleavage does the source give for G17U U64G here?
A: 0.183

Q: Which self-cleavage does the source give for G17U U64A here?
A: 0.201

Q: With G19A C39G as the variant, how does the self-cleavage read?
A: 0.149

Q: With G19A A51C as the variant, how does the self-cleavage read?
A: 0.161

Q: With G19A A51G as the variant, how does the self-cleavage read?
A: 0.172

Q: For C18U U69A, which self-cleavage is on record?
A: 0.944

Q: For G19U C29U, which self-cleavage is on record?
A: 0.117

Q: With G17U U36C as the variant, how does the self-cleavage read?
A: 0.252

Q: Which self-cleavage does the source give for C18G A42C here?
A: 0.124

Q: Which self-cleavage does the source give for C18U C24U here?
A: 0.4

Q: With G17U U69A as the variant, how does the self-cleavage read?
A: 0.675

Q: Which self-cleavage does the source give for G17U U69G here?
A: 0.768

Q: For G19U C24A, which self-cleavage is on record?
A: 0.153

Q: Which self-cleavage does the source give for G19U C24U here?
A: 0.169

Q: For C18G G25A, which self-cleavage is on record?
A: 0.174

Q: With G19A U67A as the variant, how does the self-cleavage read?
A: 0.147

Q: Which self-cleavage does the source give for G19U G56U here?
A: 0.281

Q: Which self-cleavage does the source give for G19C A42G here?
A: 0.11

Q: For G19C A42C, which self-cleavage is on record?
A: 0.153

Q: Which self-cleavage does the source give for G19C A42U here?
A: 0.173

Q: For G17U U43G, which self-cleavage is on record?
A: 0.163

Q: Which self-cleavage does the source give for G17U U43A here?
A: 0.218

Q: For G17U G19C, which self-cleavage is on record?
A: 0.16

Q: Which self-cleavage does the source give for C18A U36G here?
A: 0.145

Q: For C18A A52C, which self-cleavage is on record?
A: 0.152

Q: Which self-cleavage does the source give for C18G C66G here?
A: 0.0954

Q: For C18G C66U, which self-cleavage is on record?
A: 0.215

Q: For C18U G58C, which self-cleavage is on record?
A: 0.852

Q: Which self-cleavage does the source give for G19C U46G here?
A: 0.122

Q: Which self-cleavage does the source give for G19A G68A here?
A: 0.18

Q: For G19A G68C, which self-cleavage is on record?
A: 0.209

Q: With G19C C27A as the variant, how does the self-cleavage read?
A: 0.135

Q: Which self-cleavage does the source give for G19C U67C here?
A: 0.203

Q: For G19A U61G, which self-cleavage is on record?
A: 0.164

Q: With G19C C24G as the variant, how does the self-cleavage read?
A: 0.135

Q: For G19C C24U, which self-cleavage is on record?
A: 0.204

Q: Which self-cleavage does the source give for G19C C24A here?
A: 0.183

Q: With C18A C57G as the variant, how does the self-cleavage read?
A: 0.114

Q: With C18A C57U as the variant, how does the self-cleavage read?
A: 0.157

Q: With C18G A23U as the variant, how does the self-cleavage read?
A: 0.22

Q: For C18G A23G, which self-cleavage is on record?
A: 0.0901

Q: For C18U G30A, which self-cleavage is on record?
A: 0.282

Q: For G19C A59U, which self-cleavage is on record?
A: 0.185

Q: For G19C A59C, which self-cleavage is on record?
A: 0.0891

Q: With G19C U69A as the variant, how does the self-cleavage read?
A: 0.147

Q: Which self-cleavage does the source give for G19C G30U here?
A: 0.157

Q: For C18A C33A, which self-cleavage is on record?
A: 0.153

Q: With C18U A60U as the variant, how does the self-cleavage read?
A: 0.318

Q: With C18U A60C as the variant, how does the self-cleavage read?
A: 0.288

Q: For C18G C63G, which self-cleavage is on record?
A: 0.104

Q: With G19U C34U as the variant, how does the self-cleavage read?
A: 0.545

Q: Which self-cleavage does the source give for G19U C34A here?
A: 0.195

Q: Which self-cleavage does the source give for G19U C34G here?
A: 0.232

Q: For G19U A59C, which self-cleavage is on record?
A: 0.131

Q: Which self-cleavage does the source give for C18U G37U here?
A: 0.198

Q: Which self-cleavage does the source give for C18G C27U here?
A: 0.0906

Q: With G19A C35A as the variant, how does the self-cleavage read?
A: 0.181

Q: For G19A C35U, which self-cleavage is on record?
A: 0.188

Q: Which self-cleavage does the source give for G19U G48C here?
A: 0.699

Q: For G19U G48A, which self-cleavage is on record?
A: 0.673

Q: For C18U U55G, which self-cleavage is on record?
A: 0.39

Q: For C18A U64C, which self-cleavage is on record?
A: 0.14

Q: For C18A U64A, which self-cleavage is on record?
A: 0.108

Q: With G19A A60G as the variant, how does the self-cleavage read?
A: 0.161

Q: Which self-cleavage does the source give for C18A C29U here?
A: 0.0504

Q: For C18A C29A, which self-cleavage is on record?
A: 0.127

Q: Which self-cleavage does the source give for G19C U61A here?
A: 0.216

Q: For G17U G47U, which self-cleavage is on record?
A: 0.661

Q: Which self-cleavage does the source give for C18A A60C here?
A: 0.0911

Q: Which self-cleavage does the source give for C18A A60G here?
A: 0.195

Q: With G19C C35U as the variant, how does the self-cleavage read?
A: 0.163

Q: Which self-cleavage does the source give for C18G C39G here?
A: 0.101

Q: With C18G C39U as the variant, how does the self-cleavage read?
A: 0.196

Q: With C18G C39A as the variant, how does the self-cleavage read?
A: 0.184

Q: Which self-cleavage does the source give for C18G C54U here?
A: 0.15

Q: Which self-cleavage does the source give for C18G C54G here?
A: 0.0613

Q: Which self-cleavage does the source give for C18A A40C here?
A: 0.197

Q: For G19C C63U, which self-cleavage is on record?
A: 0.135

Q: Which self-cleavage does the source give for G19C C63A here?
A: 0.144

Q: With G19C C63G as the variant, how does the self-cleavage read?
A: 0.204

Q: Which self-cleavage does the source give for C18A C27U here?
A: 0.12

Q: Which self-cleavage does the source give for C18A C27G here?
A: 0.112

Q: Which self-cleavage does the source give for C18U A42U here?
A: 0.687

Q: Which self-cleavage does the source give for G19A U36C here?
A: 0.161

Q: With C18G U44G as the variant, how does the self-cleavage read?
A: 0.169

Q: Which self-cleavage does the source give for C18G U44C here?
A: 0.125

Q: With G19A C45U as the variant, how does the self-cleavage read?
A: 0.167

Q: Which self-cleavage does the source give for G19A C45A here?
A: 0.121

Q: Which self-cleavage does the source give for C18G U67G here?
A: 0.229

Q: Which self-cleavage does the source give for C18A U55C here?
A: 0.21

Q: For C18U C66G, which self-cleavage is on record?
A: 0.341

Q: With C18G A52C as the variant, how does the self-cleavage read?
A: 0.181

Q: For C18G A52G, which self-cleavage is on record?
A: 0.244

Q: Which self-cleavage does the source give for C18A U62G here?
A: 0.152
